Target: elav1_human ELAVL1 (UniProt Q15717)

“Polyubiquitin-C (Homo sapiens) (from UniProt P0CG48) K48R” was tested, and the “effect of a mutation on the interaction” value was “disrupting interaction”.

— IntAct's records for PubMed 19322201
